The values that follow come from paper PMC10027671.

For assay [1], the target named is Adnectin1-tFhuA. As to the kind of experiment: single-channel electrical recording (nanopore, resistive pulse); single Adnectin1-tFhuA sensor in a planar lipid bilayer, 20 nM EGFR cis, in the presence of 5% (v/v) fetal bovine serum; +20 mV; filtered at 500 Hz.
In assay [2] the target is Adnectin1-tFhuA. Description: single-channel electrical recording (nanopore, resistive pulse); single Adnectin1-tFhuA sensor in a planar lipid bilayer, EGFR added to the cis side; +20 mV; 300 mM KCl, 10 mM Tris-HCl, pH 8.0, no TCEP; 24 ± 1 °C; two-exponential capture durations (short- and long-lived).

For “ectodomain of epidermal growth factor receptor (EGFR) (from UniProt P00533 25-645) (domain or fragment)”, in the assay with Adnectin1-tFhuA [1], the tau off-1 at 20 nM EGFR with 5% FBS (Fig. 5k) turned out to be 0.036 s, the tau off-2 (mean duration of long-lived blockades) with 5% FBS came to 0.93 s, the tau off-2 at 20 nM EGFR with 5% FBS (Fig. 5k) turned out to be 0.81 s and the tau on (released duration) at 20 nM EGFR with 5% FBS (Fig. 5j) is 0.607 s. In the assay with Adnectin1-tFhuA [1], the tau on-2 with 5% FBS worked out at 1.7 s. Further, in the assay with Adnectin1-tFhuA [2], the tau off-1 at 20 nM EGFR, without FBS (Fig. 5i) amounted to 0.044 s; the tau off-2 at 20 nM EGFR, without FBS (Fig. 5i) was determined as 0.982 s; the tau on (released duration) at 10 nM EGFR is 0.78 s; the tau on (released duration) at 20 nM EGFR was found to be 0.42 s. Also, in the assay with Adnectin1-tFhuA [2], the tau on (released duration) at 20 nM EGFR, without FBS (Fig. 5h) was determined as 0.4 s and the tau on (released duration) at 40 nM EGFR was found to be 0.25 s.
